Data reported in article PMC3894725 (Nature, 2012).

Target: the molecule itself
Assay: crystal structure

B1: human pyruvate kinase M2 (His6-hPKM2) (enzyme)
chain: not shown
With B1 the “stoichiometry N” value was 4.
